Results on four molecules are retold here after publication PMC10864275, “Binding kinetics drive G protein subtype selectivity at the β1-adrenergic receptor” (Nature Communications, 2024).

Several values for one entry are separate records, joined by “and”; a condition that tells them apart may be missing. Identical values can stand only once.

Common to all, as to settings: both partners purified
The target in assay [1] is T1, avi-β1AR-E (turkey β1-adrenergic receptor, minimally thermostabilised construct with E130 restored, … (turkey, UniProt P07700 1-367, Δ3-32 | Δ244-271 | C358A^8.59 | C116L^3.27 | R68S^1.59 | F327A^7.37 | …, biotin on the avi-tag)).
T1 construct: turkey β1-adrenergic receptor; N-terminus truncated (Δ3-32), C-terminus truncated (Δ368-483), IL3 truncated (Δ244-271); as β1AR-W (β1AR-MetΔ5) but with E130W reverted to E130; source: Sf9 (baculovirus), purified in LMNG (NiNTA, SEC), biotinylated with GST-BirA and repurified by SEC; not shown: avi-tag, N-terminal, kept
Kind of assay: BLI; biotinylated avi-tagged receptor in LMNG immobilised on streptavidin biosensors; 500 μM isoprenaline; mini-G in solution at a single concentration (0.125-4 μM); 20 mM TrisHCl pH 8.0, 150 mM NaCl, 15 mM MgCl2, 0.02% LMNG, 0.1% BSA; 25 °C; 1:1 monophasic local partial fit; one of n = 3 tips. (BLI is a label-free optical method that tracks binding on a fibre tip over time.)

Assay [2] has as its target T2, avi-β1AR-W (turkey β1-adrenergic receptor β1AR-MetΔ5, thermostabilised with E130W, N-terminal biotinylated … (turkey, UniProt P07700 1-367, Δ3-32 | Δ244-271 | C358A^8.59 | C116L^3.27 | R68S^1.59 | E130W^3.41 | …, biotin on the avi-tag)).
T2 construct: turkey β1-adrenergic receptor; N-terminus truncated (Δ3-32), C-terminus truncated (Δ368-483), IL3 truncated (Δ244-271); source: Sf9 (baculovirus), purified in LMNG (NiNTA, SEC), biotinylated with GST-BirA and repurified by SEC; not shown: avi-tag, N-terminal, kept
The description is as above.

Assay [3] concerns the target T3, avi-β1AR-E (turkey β1-adrenergic receptor, β1AR-E construct with N-terminal biotinylated avi-tag) (turkey, UniProt P07700 1-367, Δ3-32 | Δ244-271 | C358A^8.59 | C116L^3.27 | R68S^1.59 | F327A^7.37 | …, biotin on the avi-tag).
T3 construct: turkey β1-adrenergic receptor; N-terminus truncated (Δ3-32), C-terminus truncated (Δ368-483), IL3 truncated (Δ244-271); as β1AR-W (β1AR-MetΔ5) but with E130 as in the wild type; source: Sf9 (baculovirus), purified in LMNG (NiNTA, SEC), biotinylated with GST-BirA, repurified by SEC; not shown: avi-tag, N-terminal, kept
Kind of assay: BLI; biotinylated avi-β1AR in LMNG on streptavidin biosensors, mini-G in solution; 500 μM isoprenaline; 20 mM TrisHCl pH 8.0, 150 mM NaCl, 15 mM MgCl2, 0.02% LMNG, 0.1% BSA; 25 °C; single point measurements, monophasic 1:1 local fit, n = 3.

T1 sequence (P07700 other isoform, or with tags, fused parts or gaps with the stated changes): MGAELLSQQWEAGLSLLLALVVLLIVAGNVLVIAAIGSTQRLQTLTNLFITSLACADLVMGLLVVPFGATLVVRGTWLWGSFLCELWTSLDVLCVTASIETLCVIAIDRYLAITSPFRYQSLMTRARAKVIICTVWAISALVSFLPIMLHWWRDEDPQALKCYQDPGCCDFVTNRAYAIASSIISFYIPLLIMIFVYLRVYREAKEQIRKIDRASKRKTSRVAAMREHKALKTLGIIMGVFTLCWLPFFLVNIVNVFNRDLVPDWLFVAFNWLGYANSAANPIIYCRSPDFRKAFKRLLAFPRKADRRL
T2 sequence (P07700 other isoform, or with tags, fused parts or gaps with the stated changes): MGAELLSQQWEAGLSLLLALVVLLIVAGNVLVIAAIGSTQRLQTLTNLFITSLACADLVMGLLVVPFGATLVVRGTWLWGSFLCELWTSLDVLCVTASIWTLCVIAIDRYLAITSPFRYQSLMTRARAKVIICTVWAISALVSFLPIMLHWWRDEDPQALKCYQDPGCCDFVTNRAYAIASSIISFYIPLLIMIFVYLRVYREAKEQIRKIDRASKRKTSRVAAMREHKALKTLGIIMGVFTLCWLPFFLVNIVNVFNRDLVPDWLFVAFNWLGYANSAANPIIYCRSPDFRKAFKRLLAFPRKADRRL

B1: mini-Gs/q R70 (chimera of mini-Gs with the receptor-interacting residues of the α5 helix replaced by Gq residues) (domain or fragment)
chain: GIEKQLQKDKQVYRATHRLLLLGADNSGKSTIVKQMRILHGGSGGSGGTSGIFETKFQVDKVNFHMFDVGGQRDERRKWIQCFNDVTAIIFVVDSSDYNRLQEALNDFKSIWNNRWLRTISVILFLNKQDLLAEKVLAGKSKIEDYFPEFARYTTPEDATPEPGEDPRVTRAKYFIRDEFLRISTASGDGRHYCYPHFTCAVDTENARRIFNDCKDIILQMNLREYNLV
The Kd is a measure of binding affinity in units of concentration. As a reminder, the koff is a measure of how fast the partners let go of each other. The kon is the second-order rate constant of association. In the case of B1, in assay [1], the Kd is 241 nM and 242 nM and 244 nM; the koff was 0.00344 s⁻¹ (2×) and 0.0034 s⁻¹; the association rate constant (kon) is 14300 M⁻¹ s⁻¹ and 14200 M⁻¹ s⁻¹ and 14000 M⁻¹ s⁻¹. Besides, in assay [2], the Kd was 529 nM and 541 nM and 533 nM; the koff is 0.00658 s⁻¹ and 0.00672 s⁻¹ and 0.00679 s⁻¹; the kon was 12400 M⁻¹ s⁻¹ (2×) and 12800 M⁻¹ s⁻¹.

B2: mini-Gs/i R43 with C96A (domain or fragment)
chain: IEKQLQKDKQVYRATHRLLLLGADNSGKSTIVKQMRIYHTSGIFETKFQVDKVNFHMFDVGGQRDERRKWIQAFNDVTAIIFVVDSSDYNRLQEALNDFKSIWNNRWLRTISVILFLNKQDLLAEKVLAGKSKIEDYFPEFARYTTPEDATPEPGEDPRVTRAKYFIRDEFLRISTASGDGRHYCYPHFTCAVDTENARRIFNDVTDIIIKMNLRDCGLF
For the molecule B2, in assay [3], the Kd came to 1090 nM and the “fold reduction of kon against mini-Gs” value stood at 40 fold.

B3: mini-Gs/q R70 (domain or fragment)
chain: IEKQLQKDKQVYRATHRLLLLGADNSGKSTIVKQMRIYHTSGIFETKFQVDKVNFHMFDVGGQRDERRKWIQCFNDVTAIIFVVDSSDYNRLQEALNDFKSIWNNRWLRTISVILFLNKQDLLAEKVLAGKSKIEDYFPEFARYTTPEDATPEPGEDPRVTRAKYFIRDEFLRISTASGDGRHYCYPHFTCAVDTENARRIFNDCKDIILQMNLREYNLV
Molecule B3 had a Kd in assay [3] of 240 nM.

B4: mini-Gs/i R43 C96A (chimera of mini-Gs with the receptor-interacting residues of the α5 helix replaced by Gi1 residues) (domain or fragment)
chain: IEKQLQKDKQVYRATHRLLLLGADNSGKSTIVKQMRILHTSGIFETKFQVDKVNFHMFDVGGQRDERRKWIQAFNDVTAIIFVVDSSDYNRLQEALNDFKSIWNNRWLRTISVILFLNKQDLLAEKVLAGKSKIEDYFPEFARYTTPEDATPEPGEDPRVTRAKYFIRDEFLRISTASGDGRHYCYPHFTCAVDTENARRIFNDVTDIIIKMNLRDCGLF
On to B4, for which, in assay [1], the Kd was 1070 nM and 1180 nM and 1030 nM; the koff is 0.00392 s⁻¹ and 0.00399 s⁻¹ (2×); the kon was 3670 M⁻¹ s⁻¹ and 3370 M⁻¹ s⁻¹ and 3860 M⁻¹ s⁻¹. Besides, in assay [2], the Kd is 3050 nM and 2400 nM and 2150 nM; the koff was 0.0063 s⁻¹ and 0.00605 s⁻¹ and 0.00634 s⁻¹; the kon is 2070 M⁻¹ s⁻¹ and 2520 M⁻¹ s⁻¹ and 2950 M⁻¹ s⁻¹.
